Measurements from patent US20200261595A1 (Novo Nordisk, published 2020).
Where a chain is given by its changes, count along the chain named. Names and notes keep the numbering of the source.

B1: (A14E, A21G, A22(GQAP)19, A98K^, A99P, B25H, B29R, desB30 human insulin)/(227A, 234A, 235K, 297E, 315Q, 384Q, des447 hIgG4-Fc(228-447)) … (other)
chain 1: GIVEQCCTSICSLEQLENYCGGQAPGQAPGQAPGQAPGQAPGQAPGQAPGQAPGQAPGQAPGQAPGQAPGQAPGQAPGQAPGQAPGQAPGQAPGQAPKP
chain 2: FVNQHLCGSHLVEALYLVCGERGFHYTPR
chain 3: ASCPAPEAKGGPSVFLFPPKPKDTLMISRTPEVTCVVVDVSQEDPEVQFNWYVDGVEVHNAKTKPREEQFESTYRVVSVLTVLHQDWLQGKEYKCKVSNKGLPSSIEKTISKAKGQPREPQVYTLPPSQEEMTKNQVSLTCLVKGFYPSDIAVEWESQGQPENNYKTTPPVLDSDGSFFLYSRLTVDKSRWQEGNVFSCSVMHEALHNHYTQKSLSLSLG
modifications: Cys229 (EU numbering) sulphur bound to an acetyl arm of the linker; A98K N(eps) acylated by the trivalent linker 4-[bis[2-[(2-acetyl)amino]ethyl]amino]-4-oxo-butanoyl
notes: also called Ex 5.15
B2: (A14E, A21G, A22(GQAP)24, A118G, A119Q, A120A, A121K^, A122P, B25H, B29R, desB30 human insulin)/(227A, 234A, 235K, 297E, 315Q, 384Q, des447 hIgG4-Fc(228-447)) … (other)
chain 1: GIVEQCCTSICSLEQLENYCGGQAPGQAPGQAPGQAPGQAPGQAPGQAPGQAPGQAPGQAPGQAPGQAPGQAPGQAPGQAPGQAPGQAPGQAPGQAPGQAPGQAPGQAPGQAPGQAPGQAKP
chain 2: FVNQHLCGSHLVEALYLVCGERGFHYTPR
chain 3: B1 chain 3
modifications: Cys229 (EU numbering) sulphur bound to an acetyl arm of the linker; A121K N(eps) acylated by the trivalent linker 3,5-bis[(2-acetyl)amino]benzoyl
notes: also called Ex 5.22
B3: (A1(N(alpha)acetyl), A14E, A21G, A22(GQAP)19, A98K^, A99P, B1(N(alpha)acetyl), B25H, B29R, desB30 human insulin)/(227A, 234A, 235K, 297E, 315Q, 384Q, des447 … (other)
chain 1: B1 chain 1
chain 2: FVNQHLCGSHLVEALYLVCGERGFHYTPR
chain 3: B1 chain 3
modifications: Cys229 (EU numbering) sulphur bound to an acetyl arm of the linker; B1 N(alpha)-acetyl; A1 N(alpha)-acetyl; A98K N(eps) acylated by the trivalent linker 4-[bis[2-[(2-acetyl)amino]ethyl]amino]-4-oxo-butanoyl
notes: Chemical insulin-Fc conjugate; also called Ex 5.27
B4: (A14E, A21G, A22(GQAP)24, A118G, A119Q, A120A, A121K^, A122P, B25H, B29R, desB30 human insulin)/(227A, 234A, 235K, 297E, 315Q, 384Q, des447 hIgG4-Fc(228-447)) … (other)
chain 1: B2 chain 1
chain 2: FVNQHLCGSHLVEALYLVCGERGFHYTPR
chain 3: B1 chain 3
modifications: Cys229 (EU numbering) sulphur bound to an acetyl arm of the linker; A121K N(eps) acylated by the trivalent linker 4-[bis[2-[(2-acetyl)amino]ethyl]amino]-4-oxo-butanoyl
notes: also called Ex 5.23
B5: A14E, A21G, A22(GQEP)19, A98K^, A99P, B3Q, B25H, B29R, desB30 human insulin/(227A, 234A, 235K, 297E, 315Q, 384Q, des447 hIgG4-Fc(228-447)) … (other)
chain 1: GIVEQCCTSICSLEQLENYCGGQEPGQEPGQEPGQEPGQEPGQEPGQEPGQEPGQEPGQEPGQEPGQEPGQEPGQEPGQEPGQEPGQEPGQEPGQEPKP
chain 2: FVQQHLCGSHLVEALYLVCGERGFHYTPR
chain 3: B1 chain 3
modifications: Cys229 (EU numbering) sulphur bound to an acetyl arm of the linker; A98K N(eps) acylated by the trivalent linker 4-[bis[2-[(2-acetyl)amino]ethyl]amino]-4-oxo-butanoyl
notes: also called Ex 5.2
B6: (A14E, A21G, A22(GQAP)18, A94G, A95Q, A96A, A97K^, A98P, B29R, desB30 human insulin)/(227A, 234A, 235K, 297E, 315Q, 384Q, des447 hIgG4-Fc(228-447)) … (other)
chain 1: GIVEQCCTSICSLEQLENYCGGQAPGQAPGQAPGQAPGQAPGQAPGQAPGQAPGQAPGQAPGQAPGQAPGQAPGQAPGQAPGQAPGQAPGQAPGQAKP
chain 2: FVNQHLCGSHLVEALYLVCGERGFFYTPR
chain 3: B1 chain 3
modifications: Cys229 (EU numbering) sulphur bound to an acetyl arm of the linker; A97K N(eps) acylated by the trivalent linker 4-[bis[2-[(2-acetyl)amino]ethyl]amino]-4-oxo-butanoyl
notes: also called Ex 5.26
B7: (A14E, A21G, A22(GQAP)19, A98K^, A99P, B25H, B29R, desB30 human insulin)/(227A, 234A, 235K, 297E, 315Q, 384Q, des447 hIgG4-Fc(228-447)) … (other)
chain 1: B1 chain 1
chain 2: FVNQHLCGSHLVEALYLVCGERGFHYTPR
chain 3: B1 chain 3
modifications: Cys229 (EU numbering) sulphur bound to an acetyl arm of the linker; A98K N(eps) acylated by the trivalent linker 6-[bis[2-[(2-acetyl)amino]ethyl]amino]-6-oxo-hexanoyl
notes: also called Ex 5.16
B8: A14E, A21G, A22(GQAPGQAPGQAPGQEP)6-GQAP, A122K^, A123P, B25H, B29R, desB30 human insulin/(227A, 234A, 235K, 297E, 315Q, 384Q, des447 hIgG4-Fc(228-447)) … (other)
chain 1: GIVEQCCTSICSLEQLENYCGGQAPGQAPGQAPGQEPGQAPGQAPGQAPGQEPGQAPGQAPGQAPGQEPGQAPGQAPGQAPGQEPGQAPGQAPGQAPGQEPGQAPGQAPGQAPGQEPGQAPKP
chain 2: FVNQHLCGSHLVEALYLVCGERGFHYTPR
chain 3: B1 chain 3
modifications: Cys229 (EU numbering) sulphur bound to an acetyl arm of the linker; A122K N(eps) acylated by the trivalent linker 4-[bis[2-[(2-acetyl)amino]ethyl]amino]-4-oxo-butanoyl
notes: also called Ex 5.20
B9: A14E, A21G, A22(GQEP)6, A46K^, A47P, B25H, B29R, desB30 human insulin/(227A, 234A, 235K, 297E, 315Q, 384Q, des447 hIgG4-Fc(228-447)) … (other)
chain 1: GIVEQCCTSICSLEQLENYCGGQEPGQEPGQEPGQEPGQEPGQEPKP
chain 2: FVNQHLCGSHLVEALYLVCGERGFHYTPR
chain 3: B1 chain 3
modifications: Cys229 (EU numbering) sulphur bound to an acetyl arm of the linker; A46K N(eps) acylated by the trivalent linker 4-[bis[2-[(2-acetyl)amino]ethyl]amino]-4-oxo-butanoyl
notes: also called Ex 5.32
B10: A14E, A21G, A22(GQAPGQEP)6, A70K^, A71P, B25H, B29R, desB30 human insulin/(227A, 234A, 235K, 297E, 315Q, 384Q, des447 hIgG4-Fc(228-447)) … (other)
chain 1: GIVEQCCTSICSLEQLENYCGGQAPGQEPGQAPGQEPGQAPGQEPGQAPGQEPGQAPGQEPGQAPGQEPKP
chain 2: FVNQHLCGSHLVEALYLVCGERGFHYTPR
chain 3: B1 chain 3
modifications: Cys229 (EU numbering) sulphur bound to an acetyl arm of the linker; A70K N(eps) acylated by the trivalent linker 4-[bis[2-[(2-acetyl)amino]ethyl]amino]-4-oxo-butanoyl
notes: also called Ex 5.14
B11: A14E, A21G, A22(GQEP)12, A70K^, A71P, B25H, B29R, desB30 human insulin/(227A, 234A, 235K, 297E, 315Q, 384Q, des447 hIgG4-Fc(228-447)) … (other)
chain 1: B10 chain 1 with A24E, A32E, A40E, A48E, A56E, A64E
chain 2: FVNQHLCGSHLVEALYLVCGERGFHYTPR
chain 3: B1 chain 3
modifications: Cys229 (EU numbering) sulphur bound to an acetyl arm of the linker; A70K N(eps) acylated by the trivalent linker 4-[bis[2-[(2-acetyl)amino]ethyl]amino]-4-oxo-butanoyl
notes: also called Ex 5.17

Assays:
insulin receptor A = insulin receptor A (UniProt P06213-2 28-1370, limits assumed); test: insulin receptor binding assay as in Vienberg et al. 2011; relative to human insulin on insulin receptor A (100%)
Sequence of insulin receptor A (P06213 other isoform, or with tags, fused parts or gaps limits assumed): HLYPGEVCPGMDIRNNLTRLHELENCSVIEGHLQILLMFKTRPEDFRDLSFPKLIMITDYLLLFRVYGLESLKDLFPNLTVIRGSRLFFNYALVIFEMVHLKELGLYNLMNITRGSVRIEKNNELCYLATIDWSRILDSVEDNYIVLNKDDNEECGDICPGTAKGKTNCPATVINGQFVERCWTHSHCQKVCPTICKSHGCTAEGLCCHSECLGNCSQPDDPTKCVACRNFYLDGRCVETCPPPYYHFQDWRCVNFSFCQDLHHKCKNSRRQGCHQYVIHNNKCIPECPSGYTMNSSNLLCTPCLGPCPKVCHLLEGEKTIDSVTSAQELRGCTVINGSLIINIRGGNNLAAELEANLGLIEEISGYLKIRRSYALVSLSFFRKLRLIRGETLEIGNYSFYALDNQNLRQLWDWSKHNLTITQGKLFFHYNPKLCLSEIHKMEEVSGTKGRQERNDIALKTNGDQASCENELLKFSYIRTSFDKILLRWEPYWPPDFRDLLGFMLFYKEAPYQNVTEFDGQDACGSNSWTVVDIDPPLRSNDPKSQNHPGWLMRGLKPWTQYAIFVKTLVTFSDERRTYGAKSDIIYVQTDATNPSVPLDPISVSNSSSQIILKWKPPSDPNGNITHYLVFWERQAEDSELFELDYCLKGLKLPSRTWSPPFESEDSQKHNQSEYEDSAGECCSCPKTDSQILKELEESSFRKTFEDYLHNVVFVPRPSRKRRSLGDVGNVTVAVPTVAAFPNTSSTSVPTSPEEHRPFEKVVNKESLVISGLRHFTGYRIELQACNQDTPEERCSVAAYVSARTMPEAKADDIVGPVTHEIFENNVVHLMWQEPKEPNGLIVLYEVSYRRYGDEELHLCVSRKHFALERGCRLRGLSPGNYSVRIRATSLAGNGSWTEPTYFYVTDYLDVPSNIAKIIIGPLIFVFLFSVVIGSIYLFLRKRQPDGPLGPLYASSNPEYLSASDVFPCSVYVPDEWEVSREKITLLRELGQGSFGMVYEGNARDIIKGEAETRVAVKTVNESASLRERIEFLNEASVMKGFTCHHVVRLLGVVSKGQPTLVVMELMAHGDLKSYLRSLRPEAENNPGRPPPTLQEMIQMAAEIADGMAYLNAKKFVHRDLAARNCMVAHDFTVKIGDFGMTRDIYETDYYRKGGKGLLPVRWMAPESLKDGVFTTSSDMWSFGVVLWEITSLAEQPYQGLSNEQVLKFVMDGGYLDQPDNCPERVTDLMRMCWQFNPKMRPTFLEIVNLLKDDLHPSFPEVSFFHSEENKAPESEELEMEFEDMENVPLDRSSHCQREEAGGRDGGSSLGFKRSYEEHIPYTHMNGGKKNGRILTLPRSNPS

[1] = target: insulin receptor of isolated rat adipocytes (rat, UniProt P15127 27-1383); test: cell-based or functional assay
Sequence of insulin receptor of isolated rat adipocytes (P15127 27-1383): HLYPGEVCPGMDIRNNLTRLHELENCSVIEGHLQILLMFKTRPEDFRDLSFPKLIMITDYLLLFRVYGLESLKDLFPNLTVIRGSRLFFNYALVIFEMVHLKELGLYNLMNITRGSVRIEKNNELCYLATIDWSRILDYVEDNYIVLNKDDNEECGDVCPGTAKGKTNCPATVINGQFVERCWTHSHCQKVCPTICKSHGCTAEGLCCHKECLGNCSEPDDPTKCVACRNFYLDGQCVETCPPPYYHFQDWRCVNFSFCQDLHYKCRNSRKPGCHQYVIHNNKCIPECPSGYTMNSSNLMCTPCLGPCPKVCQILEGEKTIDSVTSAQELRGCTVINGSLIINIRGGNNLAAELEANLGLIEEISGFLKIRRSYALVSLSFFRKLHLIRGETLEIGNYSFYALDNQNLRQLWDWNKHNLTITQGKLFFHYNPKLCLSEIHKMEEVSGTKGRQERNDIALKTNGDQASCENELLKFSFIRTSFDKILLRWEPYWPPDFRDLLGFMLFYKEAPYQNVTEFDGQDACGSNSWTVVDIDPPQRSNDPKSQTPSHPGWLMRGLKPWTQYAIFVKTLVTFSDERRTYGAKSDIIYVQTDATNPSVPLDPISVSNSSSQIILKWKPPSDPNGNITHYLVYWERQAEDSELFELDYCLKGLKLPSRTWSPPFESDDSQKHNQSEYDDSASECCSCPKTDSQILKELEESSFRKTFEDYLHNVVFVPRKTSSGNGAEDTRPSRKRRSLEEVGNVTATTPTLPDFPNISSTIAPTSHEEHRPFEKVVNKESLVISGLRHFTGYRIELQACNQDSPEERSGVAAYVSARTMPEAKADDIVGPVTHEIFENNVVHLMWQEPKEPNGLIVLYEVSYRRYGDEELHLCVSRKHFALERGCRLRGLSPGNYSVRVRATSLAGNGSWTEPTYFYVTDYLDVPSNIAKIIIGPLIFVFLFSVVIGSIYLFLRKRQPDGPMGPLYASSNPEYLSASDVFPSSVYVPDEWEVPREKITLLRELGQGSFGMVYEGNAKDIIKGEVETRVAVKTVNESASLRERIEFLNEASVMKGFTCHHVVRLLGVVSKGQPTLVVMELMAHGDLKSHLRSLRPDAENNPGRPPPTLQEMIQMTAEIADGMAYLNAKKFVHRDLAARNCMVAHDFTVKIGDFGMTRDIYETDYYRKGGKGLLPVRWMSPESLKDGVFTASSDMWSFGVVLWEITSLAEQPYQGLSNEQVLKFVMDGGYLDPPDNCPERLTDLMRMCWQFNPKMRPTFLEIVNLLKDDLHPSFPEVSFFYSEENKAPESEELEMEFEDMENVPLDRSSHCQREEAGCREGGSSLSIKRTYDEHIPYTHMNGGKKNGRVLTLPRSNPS

Row | Binder | Insulin receptor affinity [IC50 relative to HI (%)] (insulin receptor A) | Lipogenesis in rat adipocytes [Potency (%)] Mean Value [1]
1 | B1 | 3.68% | 3.68 % of human insulin
2 | B2 | 3.56% | 4.64 % of human insulin
3 | B3 | 1.07% | –
4 | B4 | 4.7% | 5.36 % of human insulin
5 | B5 | 6.1% | 3.57 % of human insulin
6 | B6 | 3.95% | 3.23 % of human insulin
7 | B7 | 3.86% | 4.34 % of human insulin
8 | B8 | 5.49% | 5.41 % of human insulin
9 | B9 | 2.16% | 3.72 % of human insulin
10 | B10 | 5.37% | 4.86 % of human insulin
11 | B11 | 3.98% | 4.39 % of human insulin
